Data from patent US20240400715A1 (VIBRANT PHARMA, published 2024).
Values joined by “and” are separate entries in the source; they are usually repeats but may differ in a detail not shown here. Equal entries are not always repeated.

B1: 312 (TA7), configuration of FIG. 1X (bispecific antibody, IgG4)
heavy: EVQLVQSGAEVKKPGASVKVSCKASGFTFTSYYIHWVRQAPGQGLEWIGWIYPENDNTKYNEKFKDRVTITADTSTSTAYLELSSLRSEDTAVYYCARDGYSRYYFDYWGQGTLVTVSSASTKGPSVFPLAPCSRSTSESTAALGCLVKDYFPEPVTVSWNSGALTSGVHTFPAVLQSSGLYSLSSVVTVPSSSLGTKTYTCNVDHKPSNTKVDKRVESKYGPPCPPCPAPEAAGGPSVFLFPPKPKDTLMISRTPEVTCVVVDVSQEDPEVQFNWYVDGVEVHNAKTKPREEQFNSTYRVVSVLTVLHQDWLNGKEYKCKVSNKGLPSSIEKTISKAKGQPREPQVYTLPPCQEEMTKNQVSLWCLVKGFYPSDIAVEWESNGQPENNYKTTPPVLDSDGSFFLYSRLTVDKSRWQEGNVFSCSVMHEALHNHYTQKSLSLSLGGGGSGGGGSEVQLVESGGGFVQAGESLTLSCTSSTLTFTPYRMAWYRQAPGKQRDLVADISSGDGRTTNYADFAKGRFTISRDNIKNTVFLRMTNLKPEDTAVYYCNTFVSFVGIARSWGQGTQVTVSS
chain: ESKYGPPCPPCPAPEAAGGPSVFLFPPKPKDTLMISRTPEVTCVVVDVSQEDPEVQFNWYVDGVEVHNAKTKPREEQFNSTYRVVSVLTVLHQDWLNGKEYKCKVSNKGLPSSIEKTISKAKGQPREPQVCTLPPSQEEMTKNQVSLSCAVKGFYPSDIAVEWESNGQPENNYKTTPPVLDSDGSFFLVSRLTVDKSRWQEGNVFSCSVMHEALHNRFTQKSLSLSL
light: DIVMTQSPDSLAVSLGERATINCKSSQSLLNSRTRKNYLAWYQQKPGQSPKLLIYWTSTRKSGVPDRFSGSGSGTDFTLTISSLQAEDVAVYYCKQSFILRTFGQGTKVEIK
notes: chains put together from parts; IgG4, kappa; not shown: kappa light chain constant domain (CL)
B2: Fab-Knob-CEA+Hole (102) (bispecific antibody, human IgG4 S228P, kappa, F234A L235A)
heavy: EVKLLESGGGLVQPKGSLKLSCAASGFTFNTYAMNWVRQAPGKGLEWVARIRSKYNNYATYYADSVKDRFTISRDDSQSILYLQMNNLKTEDTAMYYCVRHGNFGNSYVSWFAYWGQGTLVTVSSASTKGPSVFPLAPCSRSTSESTAALGCLVKDYFPEPVTVSWNSGALTSGVHTFPAVLQSSGLYSLSSVVTVPSSSLGTKTYTCNVDHKPSNTKVDKRVESKYGPPCPPCPAPEAAGGPSVFLFPPKPKDTLMISRTPEVTCVVVDVSQEDPEVQFNWYVDGVEVHNAKTKPREEQFNSTYRVVSVLTVLHQDWLNGKEYKCKVSNKGLPSSIEKTISKAKGQPREPQVYTLPPCQEEMTKNQVSLWCLVKGFYPSDIAVEWESNGQPENNYKTTPPVLDSDGSFFLYSRLTVDKSRWQEGNVFSCSVMHEALHNHYTQKSLSLSLGGGGSGGGGSEVQLVESGGGFVQAGESLTLSCTSSTLTFTPYRMAWYRQAPGKQRDLVADISSGDGRTTNYADFAKGRFTISRDNIKNTVFLRMTNLKPEDTAVYYCNTFVSFVGIARSWGQGTQVTVSS
chain: ESKYGPPCPPCPAPEAAGGPSVFLFPPKPKDTLMISRTPEVTCVVVDVSQEDPEVQFNWYVDGVEVHNAKTKPREEQFNSTYRVVSVLTVLHQDWLNGKEYKCKVSNKGLPSSIEKTISKAKGQPREPQVCTLPPSQEEMTKNQVSLSCAVKGFYPSDIAVEWESNGQPENNYKTTPPVLDSDGSFFLVSRLTVDKSRWQEGNVFSCSVMHEALHNRFTQKSLSLSL
light: QAVVTQESALTTSPGETVTLTCRSSTGAVTTSNYANWVQEKPDHLFTGLIGGTNKRAPGVPARFSGSLIGDKAALTITGAQTEDEAIYFCALWYSNLWVFGGGTKVEIKRTVAAPSVFIFPPSDEQLKSGTASVVCLLNNFYPREAKVQWKVDNALQSGNSQESVTEQDSKDSTYSLSSTLTLSKADYEKHKVYACEVTHQGLSSPVTKSFNRGEC
notes: Anti-CD3 TA1 Fab + anti-CEA VHH C17 on human IgG4 knob-into-hole Fc
B3: Knob+CEA-Fab-Hole (202) (bispecific antibody, human IgG4 S228P, kappa, F234A L235A)
chain: ESKYGPPCPPCPAPEAAGGPSVFLFPPKPKDTLMISRTPEVTCVVVDVSQEDPEVQFNWYVDGVEVHNAKTKPREEQFNSTYRVVSVLTVLHQDWLNGKEYKCKVSNKGLPSSIEKTISKAKGQPREPQVYTLPPCQEEMTKNQVSLWCLVKGFYPSDIAVEWESNGQPENNYKTTPPVLDSDGSFFLYSRLTVDKSRWQEGNVFSCSVMHEALHNHYTQKSLSLSL
heavy: EVKLLESGGGLVQPKGSLKLSCAASGFTFNTYAMNWVRQAPGKGLEWVARIRSKYNNYATYYADSVKDRFTISRDDSQSILYLQMNNLKTEDTAMYYCVRHGNFGNSYVSWFAYWGQGTLVTVSSASTKGPSVFPLAPCSRSTSESTAALGCLVKDYFPEPVTVSWNSGALTSGVHTFPAVLQSSGLYSLSSVVTVPSSSLGTKTYTCNVDHKPSNTKVDKRVESKYGPPCPPCPAPEAAGGPSVFLFPPKPKDTLMISRTPEVTCVVVDVSQEDPEVQFNWYVDGVEVHNAKTKPREEQFNSTYRVVSVLTVLHQDWLNGKEYKCKVSNKGLPSSIEKTISKAKGQPREPQVCTLPPSQEEMTKNQVSLSCAVKGFYPSDIAVEWESNGQPENNYKTTPPVLDSDGSFFLVSRLTVDKSRWQEGNVFSCSVMHEALHNRFTQKSLSLSL
light: QAVVTQESALTTSPGETVTLTCRSSTGAVTTSNYANWVQEKPDHLFTGLIGGTNKRAPGVPARFSGSLIGDKAALTITGAQTEDEAIYFCALWYSNLWVFGGGTKVEIKRTVAAPSVFIFPPSDEQLKSGTASVVCLLNNFYPREAKVQWKVDNALQSGNSQESVTEQDSKDSTYSLSSTLTLSKADYEKHKVYACEVTHQGLSSPVTKSFNRGECGGGGSGGGGSEVQLVESGGGFVQAGESLTLSCTSSTLTFTPYRMAWYRQAPGKQRDLVADISSGDGRTTNYADFAKGRFTISRDNIKNTVFLRMTNLKPEDTAVYYCNTFVSFVGIARSWGQGTQVTVSS
notes: VHH linked to the CL of the Fab; human IgG4 knob-into-hole Fc
B4: CEA-Fab-Knob-+Hole (201) (bispecific antibody, human IgG4 S228P, kappa, F234A L235A)
heavy: EVKLLESGGGLVQPKGSLKLSCAASGFTFNTYAMNWVRQAPGKGLEWVARIRSKYNNYATYYADSVKDRFTISRDDSQSILYLQMNNLKTEDTAMYYCVRHGNFGNSYVSWFAYWGQGTLVTVSSASTKGPSVFPLAPCSRSTSESTAALGCLVKDYFPEPVTVSWNSGALTSGVHTFPAVLQSSGLYSLSSVVTVPSSSLGTKTYTCNVDHKPSNTKVDKRVESKYGPPCPPCPAPEAAGGPSVFLFPPKPKDTLMISRTPEVTCVVVDVSQEDPEVQFNWYVDGVEVHNAKTKPREEQFNSTYRVVSVLTVLHQDWLNGKEYKCKVSNKGLPSSIEKTISKAKGQPREPQVYTLPPCQEEMTKNQVSLWCLVKGFYPSDIAVEWESNGQPENNYKTTPPVLDSDGSFFLYSRLTVDKSRWQEGNVFSCSVMHEALHNHYTQKSLSLSL
chain: ESKYGPPCPPCPAPEAAGGPSVFLFPPKPKDTLMISRTPEVTCVVVDVSQEDPEVQFNWYVDGVEVHNAKTKPREEQFNSTYRVVSVLTVLHQDWLNGKEYKCKVSNKGLPSSIEKTISKAKGQPREPQVCTLPPSQEEMTKNQVSLSCAVKGFYPSDIAVEWESNGQPENNYKTTPPVLDSDGSFFLVSRLTVDKSRWQEGNVFSCSVMHEALHNRFTQKSLSLSL
light: QAVVTQESALTTSPGETVTLTCRSSTGAVTTSNYANWVQEKPDHLFTGLIGGTNKRAPGVPARFSGSLIGDKAALTITGAQTEDEAIYFCALWYSNLWVFGGGTKVEIKRTVAAPSVFIFPPSDEQLKSGTASVVCLLNNFYPREAKVQWKVDNALQSGNSQESVTEQDSKDSTYSLSSTLTLSKADYEKHKVYACEVTHQGLSSPVTKSFNRGECGGGGSGGGGSEVQLVESGGGFVQAGESLTLSCTSSTLTFTPYRMAWYRQAPGKQRDLVADISSGDGRTTNYADFAKGRFTISRDNIKNTVFLRMTNLKPEDTAVYYCNTFVSFVGIARSWGQGTQVTVSS
notes: as for B3
B5: Fab-Knob+CEA-Hole (101) (bispecific antibody, human IgG4 S228P, kappa, F234A L235A)
heavy: EVKLLESGGGLVQPKGSLKLSCAASGFTFNTYAMNWVRQAPGKGLEWVARIRSKYNNYATYYADSVKDRFTISRDDSQSILYLQMNNLKTEDTAMYYCVRHGNFGNSYVSWFAYWGQGTLVTVSSASTKGPSVFPLAPCSRSTSESTAALGCLVKDYFPEPVTVSWNSGALTSGVHTFPAVLQSSGLYSLSSVVTVPSSSLGTKTYTCNVDHKPSNTKVDKRVESKYGPPCPPCPAPEAAGGPSVFLFPPKPKDTLMISRTPEVTCVVVDVSQEDPEVQFNWYVDGVEVHNAKTKPREEQFNSTYRVVSVLTVLHQDWLNGKEYKCKVSNKGLPSSIEKTISKAKGQPREPQVYTLPPCQEEMTKNQVSLWCLVKGFYPSDIAVEWESNGQPENNYKTTPPVLDSDGSFFLYSRLTVDKSRWQEGNVFSCSVMHEALHNHYTQKSLSLSL
chain: EVQLVESGGGFVQAGESLTLSCTSSTLTFTPYRMAWYRQAPGKQRDLVADISSGDGRTTNYADFAKGRFTISRDNIKNTVFLRMTNLKPEDTAVYYCNTFVSFVGIARSWGQGTQVTVSSESKYGPPCPPCPAPEAAGGPSVFLFPPKPKDTLMISRTPEVTCVVVDVSQEDPEVQFNWYVDGVEVHNAKTKPREEQFNSTYRVVSVLTVLHQDWLNGKEYKCKVSNKGLPSSIEKTISKAKGQPREPQVCTLPPSQEEMTKNQVSLSCAVKGFYPSDIAVEWESNGQPENNYKTTPPVLDSDGSFFLVSRLTVDKSRWQEGNVFSCSVMHEALHNRFTQKSLSLSL
light: QAVVTQESALTTSPGETVTLTCRSSTGAVTTSNYANWVQEKPDHLFTGLIGGTNKRAPGVPARFSGSLIGDKAALTITGAQTEDEAIYFCALWYSNLWVFGGGTKVEIKRTVAAPSVFIFPPSDEQLKSGTASVVCLLNNFYPREAKVQWKVDNALQSGNSQESVTEQDSKDSTYSLSSTLTLSKADYEKHKVYACEVTHQGLSSPVTKSFNRGEC
notes: Anti-CD3 TA1 Fab + anti-CEA VHH C17 on human IgG4 knob-into-hole Fc, kappa light chain

Assays:
[1] = molecular target: T1, human CD3 on Jurkat cells (human, UniProt P07766 23-207; P04234 22-171; P09693 23-182); assay: FACS, Jurkat cells;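 note: flow cytometric binding of bispecific antibodies to Jurkat T cells, threefold serial dilutions incubated half an hour in the cold, EC50 taken from the fitted binding curve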
T1 construct: whole, on cells; CD3 complex as on Jurkat (Clone E6-1) cells; also called CD3 expressing cells (Jurkat)
Experimental: The binding of the bispecific antibodies was tested on the CA expressing human lung adenocarcinoma cell line (H1573) and the CD3 expressing immortalized T lymphocyte line (Jurkat). The steps are as follows: the cells were harvested, counted, and resuspended in FACS buffer (PBS containing 0.1% BSA) at 2×10⁶ cells/ml. 100 μl of cell suspension was incubated in a V-bottom 96-well plate at 4° C. with 3-fold serial dilutions of bispecific antibodies (20 μg/ml-0.009 μg/ml) for 30 minutes; washed twice with pre-cooled FACS buffer. […] GraphPadPrism was used to obtain the binding curve.

[2] = molecular target: T2, human CD3ε/δ (ACRO systems, CDD-H52W1) (human, UniProt P07766 23-126; P04234 22-105); assay: BLI, antibody captured, antigen in solution;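 note: bispecific antibodies captured on AHIC biosensors to a 1.5 nm loading signal, in PBST with 0.02% detergent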
T2 construct: Bought protein; also called human CD3ϵ/CD3δ; human CD3 epsilon/delta antigen
Experimental: The bispecific antibodies were diluted to 5 ag/ml, and 1.5 nm protein was coupled to the surface of the AHIC sensor chip through 0.02% PBST.

Row | Binder | EC50 [1] | Kd [2] [nM] | koff [2] [s⁻¹] | kon [2] [M⁻¹ s⁻¹]
1 | B1 | 0.146 µg/mL and 1.12 nM | 3.24 | 0.000565 | 157000
2 | B2 | 0.592 µg/mL and 4.55 nM | 0.984 | 0.000327 | 333000
3 | B3 | 0.292 µg/mL and 2.25 nM | 3.9 | 0.000866 | 222000
4 | B4 | 0.312 µg/mL and 2.4 nM | 2.59 | 0.00046 | 178000
5 | B5 | 6.28 µg/mL and 48.3 nM | 0.979 | 0.0004 | 409000
